Test results from patent US20260242478A1 (published 2026).
Where no end group is shown, it is not given here.

B1: Phage-3275 (peptide)
peptide: FDRICKPAWMCIEF
notes: Peptide-180 library clone, tested as clonal M13 phage displaying the peptide fused to pIII
B2: Phage-3271 (peptide)
peptide: GGVLCQPAWMCIGF
notes: as for B1
B3: Phage-3273 (peptide)
peptide: SMGLCKPPWMCAGF
modifications: not fully specified; cysteine pairing not given here
notes: as for B1
B4: Phage-3212 (peptide)
peptide: TVPLCKPLWMCYGF
modifications: cysteine pairing not given here; also: fused to phage pIII, linker and order not given here
notes: Peptide-180 library clone, tested as clonal phage supernatant; not shown: pIII filament protein of the bacteriophage, to which the peptide is fused
B5: Phage-3269 (peptide)
peptide: ISPRCEPLWMCTGL
notes: as for B1
B6: Phage-3239 (peptide)
peptide: DSVLCVPSWMCHGF
modifications: cysteine pairing not given here; also: fused to phage pIII, fusion site not given here
B7: Phage-3268 (peptide)
peptide: VEVKCVPEWMCTGF
notes: as for B1
B8: Phage-3272 (peptide)
peptide: INAWCIPAWMCEGF
notes: as for B1
B9: Phage-3276 (peptide)
peptide: EFQMCVPEWMCTGL
notes: as for B1
B10: Phage-3274 (peptide)
peptide: MVVRCEPEWMCIGF
notes: as for B1
B11: Phage-3267 (peptide)
peptide: LPYMCTPIWMCIGF
notes: as for B1
B12: Phage-3270 (peptide)
peptide: LDPMCVPSWMCWGF
notes: as for B1

Experiments:
PSMA Fab [1] = target: T1, PSMA Fab; assay: clonal phage ELISA; biotinylated PSMA Fab on neutravidin plate, wells pre-incubated with PSMA antigen as competitor; anti-M13 HRP detection;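 also: crude clonal phage supernatants added to antigen-treated wells without a wash, incubated briefly, then bound phage read out via horse radish–conjugated anti-M13 antibody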
T1 construct: also called Anti-PSMA Fab; 006 PSMA Fab
Method: (§1) Clonal phage were harvested as crude supernatants and screened via standard ELISAs. […] Prior to the addition of clonal phage. wells were incubated with blocking buffer and PSMA antigen or blocking buffer alone. Without washing or aspirating, clonal phage supernatants were then added to the wells and incubated for a short time. Wells were then washed followed by detection of bound phage using a horse radish conjugated anti-M13 antibody.

PSMA Fab [2] = target: T1, PSMA Fab; assay: clonal phage ELISA; biotinylated PSMA Fab on neutravidin plate; anti-M13 HRP detection
Method: as §1

PSMA Fab (006 PSMA Fab) [3] = target: T2, PSMA Fab (006 PSMA Fab) (biotinylated for capture on neutravidin plates (site not stated)); assay: phage ELISA: clonal phage supernatant on biotinylated PSMA Fab captured on neutravidin plate, anti-M13-HRP detection
T2 construct: also called Anti-PSMA Fab; anti-PSMA Fab

PSMA Fab (006 PSMA Fab) [4] = target: T2, PSMA Fab (006 PSMA Fab); assay: phage ELISA as above, wells pre-incubated with PSMA antigen as competitor
Method: as §1

PSMA Fab (006 PSMA Fab) [5] = target: T3, PSMA Fab (006 PSMA Fab); assay: phage ELISA; biotinylated PSMA Fab on neutravidin plate pre-incubated with PSMA antigen as competitor, clonal phage supernatant, anti-M13 HRP
T3 construct: also called Anti-PSMA Fab; anti-PSMA Fab
Method: as §1

PSMA Fab (006 PSMA Fab) [6] = target: T3, PSMA Fab (006 PSMA Fab); assay: phage ELISA; biotinylated PSMA Fab on neutravidin plate, clonal phage supernatant, anti-M13 HRP; blocking buffer alone
Method: as §1

PSMA Fab [7] = target: T4, PSMA Fab; assay: phage binding ELISA; biotinylated PSMA Fab on neutravidin plate, wells pre-incubated with PSMA antigen as competitor, clonal phage supernatant, anti-M13 HRP detection
T4 construct: also called Anti-PSMA Fab; 006 PSMA Fab
Method: as §1

PSMA Fab [8] = target: T4, PSMA Fab; assay: phage binding ELISA; biotinylated PSMA Fab on neutravidin plate, clonal phage supernatant, anti-M13 HRP detection; blocking buffer alone;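 also: before phage were added, wells were preincubated with blocking buffer either containing PSMA antigen or without it, and phage were then added with no wash in between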
Method: as §1

Row | Binder | Phage binding ELISA signal, Anti-PSMA Fab in presence of PSMA (PSMA Fab [1]) | Phage binding ELISA signal, Anti-PSMA Fab (PSMA Fab [2]) | Phage binding ELISA signal, Anti-PSMA Fab with PSMA antigen (PSMA Fab (006 PSMA Fab) [5]) | Phage binding ELISA signal, Anti-PSMA Fab (PSMA Fab (006 PSMA Fab) [6]) | further results
1 | EENFCVPKWMCEGF [Phage-3264] | 0.126 | 1.91 |  |  | 
2 | FFKMCIPEWMCSGF [Phage-3263] | 0.205 | 1.91 |  |  | 
3 | DGFICRPEWMCQWL [Phage-3256] | 0.0653 | 1.93 |  |  | 
4 | B1 |  |  |  |  | Phage binding ELISA signal, Anti-PSMA Fab (PSMA Fab (006 PSMA Fab) [3]): 1.9; Phage binding ELISA signal, Anti-PSMA Fab in presence of PSMA (PSMA Fab (006 PSMA Fab) [4]): 0.0573
5 | VSIVCVPEWMCSGF [Phage-3262] | 0.0721 | 1.92 |  |  | 
6 | EIMLCKPEWMCYGF [Phage-3265] | 0.0998 | 1.91 |  |  | 
7 | B2 |  |  |  |  | Phage binding ELISA signal, Anti-PSMA Fab (PSMA Fab (006 PSMA Fab) [3]): 1.9; Phage binding ELISA signal, Anti-PSMA Fab in presence of PSMA (PSMA Fab (006 PSMA Fab) [4]): 0.0804
8 | ENVRCEPMWMCKGF [Phage-3260] | 0.0648 | 1.92 |  |  | 
9 | MMHNCIPYWMCAGF [Phage-3249] |  |  | 0.101 | 1.93 | 
10 | PTPVCKPGWMCDLF [Phage-3261] | 0.0845 | 1.92 |  |  | 
11 | NVPVCIPDWMCVGF [Phage-3250] |  |  | 0.0851 | 1.93 | 
12 | B3 |  |  |  |  | Phage binding ELISA signal, Anti-PSMA Fab (PSMA Fab (006 PSMA Fab) [3]): 1.9; Phage binding ELISA signal, Anti-PSMA Fab in presence of PSMA (PSMA Fab (006 PSMA Fab) [4]): 0.0756
13 | EYQVCKPTWMCTGF [Phage-3266] | 0.0904 | 1.91 |  |  | 
14 | VTHSCVPAWMCVGL [Phage-3248] |  |  | 0.091 | 1.93 | 
15 | MPMHCVPSWMCEGF [Phage-3252] |  |  | 0.0901 | 1.93 | 
16 | NILRCEPMWMCTGF [Phage-3245] |  |  | 0.0977 | 1.94 | 
17 | AEMRCIPQWMCSGL [Phage-3259] | 0.138 | 1.92 |  |  | 
18 | B4 |  |  |  |  | Phage binding ELISA signal, Anti-PSMA Fab in presence of PSMA (PSMA Fab [7]): 0.184; Phage binding ELISA signal, Anti-PSMA Fab (PSMA Fab [8]): 1.97
19 | YGALCVPAWMCSGF [Phage-3254] | 0.0866 | 1.93 |  |  | 
20 | B5 |  |  |  |  | Phage binding ELISA signal, Anti-PSMA Fab (PSMA Fab (006 PSMA Fab) [3]): 1.91; Phage binding ELISA signal, Anti-PSMA Fab in presence of PSMA (PSMA Fab (006 PSMA Fab) [4]): 0.0836

Row | Binder | Phage binding ELISA signal, Anti-PSMA Fab in presence of PSMA (PSMA Fab [1]) | Phage binding ELISA signal, Anti-PSMA Fab (PSMA Fab [2]) | Phage binding ELISA signal, Anti-PSMA Fab with PSMA antigen (PSMA Fab (006 PSMA Fab) [5]) | Phage binding ELISA signal, Anti-PSMA Fab (PSMA Fab (006 PSMA Fab) [6]) | further results
21 | B6 |  |  | 0.0834 | 1.94 | 
22 | B7 |  |  |  |  | Phage binding ELISA signal, Anti-PSMA Fab (PSMA Fab (006 PSMA Fab) [3]): 1.91; Phage binding ELISA signal, Anti-PSMA Fab in presence of PSMA (PSMA Fab (006 PSMA Fab) [4]): 0.0868
23 | VNVRCEPSWMCTGL [Phage-3243] |  |  | 0.0801 | 1.94 | 
24 | GFRICEPEWMCVGF [Phage-3240] |  |  | 0.0629 | 1.94 | 
25 | B8 |  |  |  |  | Phage binding ELISA signal, Anti-PSMA Fab (PSMA Fab (006 PSMA Fab) [3]): 1.9; Phage binding ELISA signal, Anti-PSMA Fab in presence of PSMA (PSMA Fab (006 PSMA Fab) [4]): 0.137
26 | QPGYCVPQWMCMGF [Phage-3258] | 0.0948 | 1.92 |  |  | 
27 | MVERCIPVWMCEGF [Phage-3241] |  |  | 0.0937 | 1.94 | 
28 | B9 |  |  |  |  | Phage binding ELISA signal, Anti-PSMA Fab (PSMA Fab (006 PSMA Fab) [3]): 1.9; Phage binding ELISA signal, Anti-PSMA Fab in presence of PSMA (PSMA Fab (006 PSMA Fab) [4]): 0.0838
29 | B10 |  |  |  |  | Phage binding ELISA signal, Anti-PSMA Fab (PSMA Fab (006 PSMA Fab) [3]): 1.9; Phage binding ELISA signal, Anti-PSMA Fab in presence of PSMA (PSMA Fab (006 PSMA Fab) [4]): 0.0649
30 | SIPKCMPEWMCIGL [Phage-3253] | 0.0587 | 1.93 |  |  | 
31 | B11 |  |  |  |  | Phage binding ELISA signal, Anti-PSMA Fab (PSMA Fab (006 PSMA Fab) [3]): 1.91; Phage binding ELISA signal, Anti-PSMA Fab in presence of PSMA (PSMA Fab (006 PSMA Fab) [4]): 0.143
32 | IVPWCKPAWMCAVS [Phage-3255] | 0.12 | 1.93 |  |  | 
33 | B12 |  |  |  |  | Phage binding ELISA signal, Anti-PSMA Fab (PSMA Fab (006 PSMA Fab) [3]): 1.9; Phage binding ELISA signal, Anti-PSMA Fab in presence of PSMA (PSMA Fab (006 PSMA Fab) [4]): 0.0992
34 | LGNLCVPPWMCQGF [Phage-3257] | 0.241 | 1.92 |  |  | 
35 | GLALCKPAWMCQGF [Phage-3247] |  |  | 0.0706 | 1.93 | 
36 | GVIACKPHWMCTGF [Phage-3251] |  |  | 0.085 | 1.93 | 
37 | QDIVCRPSWMCHGF [Phage-3246] |  |  | 0.0762 | 1.94 | 
38 | LSAMCVPPWMCTGF [Phage-3244] |  |  | 0.138 | 1.94 | 
39 | ETSMCRPSWMCEGF [Phage-3242] |  |  | 0.0918 | 1.94 | 
